Experimental data from the DeepSol protein solubility set.

Assay: soluble on expression in E. coli; label from the status in PepcDB or PDB records

Row | Sequence | soluble on expression in E. coli
1 | MAHHHHHHMMEERYNPFTGYQTPRHQQQSYRHNGGAMSRGGWGERVDAPADKMKPVDWTRVKLVPGSWKVLDTKAIHRAAHAKAEVVPAKQLTEEESNEWRETHTISIFGEGCPPPLSNFDQLSAFVPAYLQKKLTAQGFTSPTAVQAQAWPILLRGRDMVGVAKTGSGKTLAFMVPALAHIAMQEPLRTGDGPMVVVLAPTRELAQQIEQETKKVLPHDLRCGCVYGGAPKGPQLGILRNGVHILVATPGRLIDFLEIKRVNFFRVTYLVLDEADRMLDMGFEPQVRAICGQIRPDRQTLMFSATWPKEIQRLAAEFQKDWIRINVGSTELLANKDVTQHFILTQEHAKMEELKKLLANHRNQRVLIFCKTKRTADDLEWQLKRWGYDAMAIHGDKEQRQREFILERFRKDPRLCLVATDVAARGLDIKELETVINYDFPMQIDDYVHRIGRTGRAGAKGEAFTLITKREQQITPAVVTELIAIVDRAQQQVPDWLREWGEQRPRYQVMKRNRNMMGFGSSRHMPALYNGNRASFDAAGGGHPGNNNGTAGNKRGGEGGVFGLARHGSNGAAPFSSSRIEYKRFDDSDDDDGAAPPAKKRSK | soluble
2 | MAHHHHHHMMGISPEAVLLDFDWTASYVLATDRLSTAAMNRATARTVSMEGGADGADTKPRNSGGGMPLLQLAMDVARVAPPSEVASISPLVSPVSGVRLQLLATASSEMQGGGEGQPAERMLLPNDRLTMELDAESLDALIAALRTAVDGMDSLSGC | not soluble
3 | MAHHHHHHMMSKPHHATLESIKYTPGSLRLLDQRKLPLETVFDDVLTVEDIWSAIKEMRVRGAPAIAVSAALGIAVATQRKAANGELKSGREVQTFLLTSCDFVMTSRPTAVNLFNCLRDLKAQVDKLDPTKAAAEVAQAFVELAEAVYTNDVAFNEGIMRHGAAHILAAAKAEGRDKVSILTICNTGALATSRYGTALGVVRQLFYDGKLERVYACETRPWNQGARLTVYECVQEDIPCTLICDGAASSLMLNRKIDAVVVGADRICQNGDTANKIGTYNLAVSAKFHGVKLYVAAPTTTLDVKTASGNHVEIEEREPTEITTNLVTKQRVVADGPHLSIWNPVFDITPSELITGGIITEKGVQAPAASAPYYDIASIIAQA | soluble
4 | MAHHHHHHMNPLYTDSISYSASDANITLPQQSMPQWANTNATASRVSAAPATAGEQAQQGNFASSLNSAGGFSVHVGSDAARSTLCSPKIATESLTAAAATTTTTKATTAVRRAPFLNPPPQQPLSGTRNRLSAPGSPAMYRSGPPIGFGGGPNYYYQYGGNTFIQDGKQQENEYYPPLPMSTPFHPVTAITKLVPLPHPKTGRGGIPAIFRFWGPIGSPAPRTPVPVPSLPNAGGVAATVFLAAIPISLVPQQMHPLSPRHPATGGSPAASSPLGGGESMGMSLVEVHHHSNGSSLGAGSPTAPAITPAPATAAAGASAVNLTVRVRRRTGGGNTAAIRVGGGASLAPLQLPSQGTSSLGASLTTLATTGPAKGPGTPFKHSPITPSNLPPAPLFAQSAPAQLLVDDSGSQRLSPTSMLPTNLVNEGSKTKGESVLRVDEDTYMQREAFRWNPYASTKWAQNRSNSTGASTSDSRGRLPVEGGSGSG | soluble
5 | MAHHHHHHMNSPVVKMKAVKNDVEIDNMKQAHILDGLALLQFFHWCEQKRKTKELFNETEMSLRHKVDYFRSTKKNFIFPSFSTISASGPNAAVIHYECTDKTNATIKPAIYLLDSGGQYLHGTTDVTRTTHFGEPTAEEKRIYTLVLKGHLRLRKVIFASYTNSSALDFIARENLFNNFMDYNHGTGHGVGLTLNVHEGGCSIGPVGGAPLKKNMVLSNEPGYYMKDKFGVRIENMQYVISKEITDTTEYLSFDDLTMYPYEKKLLDFSLLTNQEIKELNEYHTTIRNTLLPLVKQSPQEYGESVEKYLIEITEPIAIHNN | not soluble
6 | MAHHHHHHMNTDERYKLLRSVGEECIQESELRNLIEKKPLIRCYDGFEPSGRMHIAQGIFKAVNVNKCTAAGCEFVFWVADWFALMNDKVGGELEKIRIVGRYLIEVWKAAGMDMDKVLFLWSSEEITSHADTYWRMVLDIGRQNTIARIKKCCTIMGKTEGTLTAAQVLYPLMQCCDIFFLKADICQLGLDQRKVNMLAREYCDLIGRKLKPVILSHHMLAGLKQGQAKMSKSDPDSAIFMEDTEEDVARKIRQAYCPRVKQSASAITDDGAPVATDDRNPVLDYFQCVVYARPGAAATIDGTTYATYEDLEQAFVSDEVSEDALKSCLIDEVNALLEPVRQHFASNEEAHELLEAVKSYRKDGATLPLAETALPAAPAKPHACMWMPALLKVPLDVAEGMIKVTKDFIAAHPEGTVTLVLPDWSAVASDEITGVEKDISAALQVNCALLKAYGLPSSVKIVTENEVILGNCDDFWVSVIGIARKNLLSHVEELYGGEVRNAGQVIAALMRVATALMLSVSHVISTSLDGHINAFAREYTKERIDCVQTLEGRIPALHRPGAAPAVLGADDVLYLDDNDMDIRRKIKKAYSAPNEEANPVISVAQHLLAQHGALSIERGEANGGNVSYNTPEALVADCGSGALHPADLKAAVLQLLLDRSAQARALLNGELKKNMTVLRNAEKKMAKKR | soluble
7 | MAHHHHHHMPAAVTVHPLVLLSIVDHVTRVGLQTQQQRSPQKQGSAPDAAAASLPAPVFLSTAGLLMGTTRASGPVVTSTCSAESGGRGITTTLCASFEFPLRLQSTDGVAVAVAPSGDATFLQNILRDKTDWPAAQKHREQLSAVMPEMDVVGCYVVCASSRWTSTRHPRGGDDRDGSQLSVGGAVKKAKGEAMAGADHIAAIANCVQQQLRSTSILPSTATGFVLLVVYDKEVTSAAGDTDTAAPNPPHSPAAARLPFDCLYVPATTASDASPTEEVTVGPSDMEWIALANETMMPAYHQSSTTTCSAAVKPGLLRRLCSAAYLTSEGPDSREPANTQTSRMASSQNCRAAEELVGSLRLIMRVLVEMTASTLSPTGTAPDDVELLRTVATCLRNVPVSHPSQPPGEPRAPSELPTEEMLSAILALEVQCALHMRSLSKAQQQLLSSSRSAMTAFHSKACSPKAANPPPPLPSAEGWSTHERDKRSGVNTAVPGHGWV | not soluble
8 | MAHHHHHHMPAHRRYSSVSSSSSRAFSEPSDGGTSSVNDSNSYYSEGSGSYRSVSSVLASRSGAKTTAATTASSTSAVDSSSTNTFSDVLTTSSAYSHSSAPPRRAVTRPAASRSEAVGHKTTKGASGVVVADHNNTGVGETLAQRTASTFTAPTTASSVTVDGTDGLVRAPQSLMLQAALAPVSNRTANVARVKPCNVSEEELVHHPWAPVDCDTTVDASKEGGDRGGLALNVLDTIHTVPIAVPLPPEEAPRRREEGSPTYPSRLAFRVVPSSSPLRHSDSAVTEDKDGTGNGGGGAALGADGATAPRARKTSIACCCCCCLHGCGEKAPCNTKRYTATRQKPHHPLRSHHVPLVSFRTTREHGIPMEGVQNVLPSVEEAARYQNLKVDMMGTEEFPKLMRKAIQPRDRLAGGLRLEKSYAFGHGAGGGRGGAGQSAFVRDGDPQGFWIAHLHRCAIVRLEPIGAE | not soluble
9 | MAHHHHHHMPAVADCTVVFPLRHDPASTHPDVSGLVGKAFERVNWRDAFDTFLAEERSALWAAKTAFDNTDTSAYIAARDALFPQAVSGVHGAVAFRNRAGHKLHETMEAVGLWEYLKGGATRAKGTFTFVDVCGGPGAFSQALFAMGKEHKLRLRGFGLTLRNVKGLDWYTDLPSRSFFPCYGIDGTGDVFKLENIESLCSLTCKENVRLVVADGGFDVPTEVVNFQETISCRIVYGQWLSAVKLLRPGGCFVLKLFDCFSPFTRAILFLTTHLYESVQVVKPRHSRVVNSERYLVCIGFIGAPKQWLEHFERCYQEGFVDNDNIPTVLPTSLFSGDKIFGADVERMSATIASNQVSGLHAILEKLQSKPAMEEVKS | not soluble
10 | MAHHHHHHMPGSLKVQTGRGDARKTVKKTVLSKGNITRSDEPAGVADSAASASVAKSSSTTASTLTIAVALSMCEQERAVEAVKETIPASASREVLRKDPIYRIMHALPRSDVLEVVRSRFEKPHCERAAAYFDLSYMKNPLRHLRLQLGCDGPTGIYLFFRRIAAHRHTLRVVDFSRNRLSADDAVLICNTLGLGVAGDVATAPGTTKASSAGAVADSTVSTAVGASAQPASSLELLDLSYNAKLGNDGAVHVVRAVRRLPSIRAVILKSVGIDDAGAVAMADVVRRWPAPALCANSAAPHALLRPVTASATKFYLNLNENYIGARGTDVLGKGLPHYVSLTLAKQQPDPARDRKRSRDDDGAACR | not soluble
11 | MAHHHHHHMPGVLRGKGPTRVFLPQPCNHVGNLKIVWKVKLQIYAVQTNFSRVYGAPSDAQPHVICGTKRISDVHQDIACCRILLNGVIAPPVRLQNQPLVFLTKETGDGVGITHCVECRHVSQHILRLKKNIAVNDDSPLLGAAVTNEIHTKPASSHSSADTQMIGH | not soluble
12 | MAHHHHHHMPLPPLEEAPRSMTRRNYLVERNRLRVSAYAPTRRELEEEDIRMAQTREERRRNMLNSWKSQSMYNPDLTRPLPGGGPRSKRMKEAATLKNPNYYKIVKEEEAQLKAERTAMYRADVLQQLKDREEYLRKWREDEKAYVSSLVESNKEQARKLEEREREEARAEKEYMNRMRESNLRELEQKRMKEREREEYELSLIRTVQAREKEKAETEERRARDMKQMMRRENEEYHRSIKKKQKEDKAREEAELKAILEYNATLAERERQEQKQRRDQYKAEFEETIEKQKEFFRTHNYDEPPESIRERNEKAAAALALIKKEERLRLADRRREYRQELMQQIREKQEWQLTHIDGV | not soluble
13 | MAHHHHHHMPNSVDCDFLNAPAHPPCNNRISASSRSRDGASIRNIGSISNIGARNRGARNCDQVIHTVYVKYFEMERYLGNINYNMDYFNPVLNHPTKIEHGKIKILILDAPTNDLLPLYIKEMKNYNVTDLVRTCERTYNDGEITSAGINVHELIFPDGDAPTVDIVSNWLTIVNNVIKNNRAVAVHCVAGLGRAPVLASIVLIEFGMDPIDAIVFIRDRRKGAINKRQLQFLKAYKKKKKKKNCLRKCHFM | not soluble
14 | MAHHHHHHMPVAPLHPELQRVLKENRRTRAFDPAAWIEMKCAKLNDYMQRCGLKACVTSVSGGIDSAVVLAMCAHAMRAHNSPIQKNVGLCQPIHSSDWALRRGKENIAACGATEVVVDQTALHTELATLVERAAGIEGGAFARGQLRSYMRTPPGFYVAQLLTQEGTPAVVMGTGNKDEDFYLGYFCKAGDGVVDVQIISDLHKSEVLLVAEVLGVPENTRHAAPSADLWEGQTDEDELGFPYDFVELFTEWYLKQRETTKIKFLNSLCDEARNQFERYVAACELVHRRNAHKLQGQVNL | not soluble
15 | MAHHHHHHMPVRRYGGRYNSSSPGVSNALNPSRTAGWPLSPSPATGSKPASTHHDPVPQEAYYVKDEADARHQQQAPLREPSVEVEVEIIDDEPPRGSQKPLSVAPCTANANNSSGGSKCNAITASRYTFYTNAYQKSVYEALRSLRPLPELQEPRRVKEYAETSLKDSLYRIVEAHDVIMVAGAFFGDEGKGKTVDAVARHPLCTCIARVNSGENAGHTVYDKAGRKFVFNLAPSGLLLPGKRNYIGPECVMDPVSFMEKEVIQLIDAGIDYRDRLFIGNVCIVTPYHKLLDLLGSAANSSTLKGMAPVHGSKVMKRGIRLDHIFNDDETLRKRLEKDMDTYFGLLKVKNLSDADVVRLCREENSDGVVRVPDYVIAFAQAEDKVEFLVKLYRDRVRHNPGFPARCDVTYELHAALLRGEKVLLEGPQSYWLSNARTKFWESTTSADTTAAGLLAASQLNFQKFKSVVLNVHKAPGSSRVGIGACPSSFVPQDYFSAQNIKTLRDLPSATCAHFEAVQRTLFRDGFPHSNDKARHNGIMAPVEYSDETGTYNIGVAMAIASAQHHGECGAVTKKPRVCGFFDCVLHHEVNNIQGPYLTISALDRGDEYDKVGVTIAYVYYSPEGKQVDVNGHVYKNGDIIRAGDPVPSEPALYHCHPIVKLIDGWRDNPIAAAKRRRNAPLPRGVCELLSAIEYFTNCKILSIGNGPNGDDIIYLRQ | not soluble
16 | MAHHHHHHMPWATTLDLKATPPPTLCVTVSNTTDVLIIADMQVDFLTPGGSLHVKGGEALLDGINAVSSQLPFRYQVATQDWHPENHCSFVTHGGPWPPHCVQGSSGAQLHAGLHTHRINAVLRKGATQQADSYSAFVDDNGVSTGLAGLLHSIGARRVFVCGVAYDFCVFFTAMDARKNGFGVVLLEDLTAAVDDAAWSARAAELKEAGVVLLSSSALVAEGTET | soluble
